Test results taken from patent US20250084142A1 (INTARCIA THERAPEUTICS, published 2025).
Starred links: 1 amine or outer side, 2 acyl side, 3 side chain; linkers in the order of their positions; H or OH if unused. Non-standard residues stand in square brackets, D forms with d. Groups on a side chain read outwards from the residue. No end group written: not given here. *: point of attachment. C20 diacid = O=C(O)CCCCCCCCCCCCCCCCCCC(=O)*; Phe(4-F) = N[C@@H](Cc1ccc(F)cc1)C(=O)O; Phe(4-Me) = Cc1ccc(C[C@H](N)C(=O)O)cc1; γGlu = O=C(O)[C@H](CCC(=O)[*:2])N[*:1]; NMeY = CN[C@@H](Cc1ccc(O)cc1)C(=O)O; hPhe = N[C@@H](CCc1ccccc1)C(=O)O

T1: NPY5R
T1 sequence (Q15761 1-445, species assumed, looked up): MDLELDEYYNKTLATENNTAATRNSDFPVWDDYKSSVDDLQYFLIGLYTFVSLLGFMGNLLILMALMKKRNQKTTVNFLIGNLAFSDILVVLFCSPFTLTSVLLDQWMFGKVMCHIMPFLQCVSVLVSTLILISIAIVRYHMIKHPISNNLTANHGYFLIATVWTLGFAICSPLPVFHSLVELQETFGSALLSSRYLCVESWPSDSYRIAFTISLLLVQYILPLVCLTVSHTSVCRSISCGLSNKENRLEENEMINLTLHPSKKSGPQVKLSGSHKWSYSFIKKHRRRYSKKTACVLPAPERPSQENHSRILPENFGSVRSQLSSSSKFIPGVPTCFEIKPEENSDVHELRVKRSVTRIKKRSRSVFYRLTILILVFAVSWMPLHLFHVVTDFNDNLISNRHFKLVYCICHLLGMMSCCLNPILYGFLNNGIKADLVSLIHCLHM

T2: NPY2R
T2 sequence (P49146 1-381, species assumed, looked up): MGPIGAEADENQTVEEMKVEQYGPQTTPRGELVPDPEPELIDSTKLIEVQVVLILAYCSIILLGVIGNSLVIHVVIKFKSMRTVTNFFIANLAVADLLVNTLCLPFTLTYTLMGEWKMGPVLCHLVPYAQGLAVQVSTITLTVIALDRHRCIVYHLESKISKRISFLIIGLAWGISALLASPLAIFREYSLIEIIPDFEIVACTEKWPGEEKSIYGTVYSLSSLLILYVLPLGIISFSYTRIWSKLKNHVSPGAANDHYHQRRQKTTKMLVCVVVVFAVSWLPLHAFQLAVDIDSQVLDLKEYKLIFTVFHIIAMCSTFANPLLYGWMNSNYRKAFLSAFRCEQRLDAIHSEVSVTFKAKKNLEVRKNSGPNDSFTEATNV

B1: Compound A60 (peptide)
peptide: PKPEAPGK([γGlu-γGlu-C20 diacid])DASPEEWNRYYADLRHYLNWLTRQR[Phe(4-F)]-NH2
B2: Compound A53 (peptide)
peptide: PKPEAPGKDASPEEWNRYYADLK([γGlu-γGlu-C20 diacid])HYLNWLTRQRF-NH2
modifications: N-terminus assumed
SMILES: CC(C)C[C@H](NC(=O)[C@H](CC(=O)O)NC(=O)[C@H](C)NC(=O)[C@H](Cc1ccc(O)cc1)NC(=O)[C@H](Cc1ccc(O)cc1)NC(=O)[C@H](CCCNC(=N)N)NC(=O)[C@H](CC(N)=O)NC(=O)[C@H](Cc1c[nH]c2ccccc12)NC(=O)[C@H](CCC(=O)O)NC(=O)[C@H](CCC(=O)O)NC(=O)[C@@H]1CCCN1C(=O)[C@H](CO)NC(=O)[C@H](C)NC(=O)[C@H](CC(=O)O)NC(=O)[C@H](CCCCN)NC(=O)CNC(=O)[C@@H]1CCCN1C(=O)[C@H](C)NC(=O)[C@H](CCC(=O)O)NC(=O)[C@@H]1CCCN1C(=O)[C@H](CCCCN)NC(=O)[C@@H]1CCCN1)C(=O)N[C@@H](CCCCNC(=O)CC[C@H](NC(=O)CC[C@H](NC(=O)CCCCCCCCCCCCCCCCCCC(=O)O)C(=O)O)C(=O)O)C(=O)N[C@@H](Cc1c[nH]cn1)C(=O)N[C@@H](Cc1ccc(O)cc1)C(=O)N[C@@H](CC(C)C)C(=O)N[C@@H](CC(N)=O)C(=O)N[C@@H](Cc1c[nH]c2ccccc12)C(=O)N[C@@H](CC(C)C)C(=O)N[C@H](C(=O)N[C@@H](CCCNC(=N)N)C(=O)N[C@@H](CCC(N)=O)C(=O)N[C@@H](CCCNC(=N)N)C(=O)N[C@@H](Cc1ccccc1)C(N)=O)[C@@H](C)O
B3: Compound A54 (peptide)
peptide: PKPEAPGKDASPEEWNRYYK([γGlu-γGlu-C20 diacid])DLRHYLNWLTRQRF-NH2
modifications: N-terminus assumed
SMILES: CC(C)C[C@H](NC(=O)[C@H](CC(=O)O)NC(=O)[C@H](CCCCNC(=O)CC[C@H](NC(=O)CC[C@H](NC(=O)CCCCCCCCCCCCCCCCCCC(=O)O)C(=O)O)C(=O)O)NC(=O)[C@H](Cc1ccc(O)cc1)NC(=O)[C@H](Cc1ccc(O)cc1)NC(=O)[C@H](CCCNC(=N)N)NC(=O)[C@H](CC(N)=O)NC(=O)[C@H](Cc1c[nH]c2ccccc12)NC(=O)[C@H](CCC(=O)O)NC(=O)[C@H](CCC(=O)O)NC(=O)[C@@H]1CCCN1C(=O)[C@H](CO)NC(=O)[C@H](C)NC(=O)[C@H](CC(=O)O)NC(=O)[C@H](CCCCN)NC(=O)CNC(=O)[C@@H]1CCCN1C(=O)[C@H](C)NC(=O)[C@H](CCC(=O)O)NC(=O)[C@@H]1CCCN1C(=O)[C@H](CCCCN)NC(=O)[C@@H]1CCCN1)C(=O)N[C@@H](CCCNC(=N)N)C(=O)N[C@@H](Cc1c[nH]cn1)C(=O)N[C@@H](Cc1ccc(O)cc1)C(=O)N[C@@H](CC(C)C)C(=O)N[C@@H](CC(N)=O)C(=O)N[C@@H](Cc1c[nH]c2ccccc12)C(=O)N[C@@H](CC(C)C)C(=O)N[C@H](C(=O)N[C@@H](CCCNC(=N)N)C(=O)N[C@@H](CCC(N)=O)C(=O)N[C@@H](CCCNC(=N)N)C(=O)N[C@@H](Cc1ccccc1)C(N)=O)[C@@H](C)O
B4: Compound A55 (peptide)
peptide: PKPEAPGKDASPEEWK([γGlu-γGlu-C20 diacid])RYYADLRHYLNWLTRQRF-NH2
modifications: N-terminus assumed
SMILES: CC(C)C[C@H](NC(=O)[C@H](CC(=O)O)NC(=O)[C@H](C)NC(=O)[C@H](Cc1ccc(O)cc1)NC(=O)[C@H](Cc1ccc(O)cc1)NC(=O)[C@H](CCCNC(=N)N)NC(=O)[C@H](CCCCNC(=O)CC[C@H](NC(=O)CC[C@H](NC(=O)CCCCCCCCCCCCCCCCCCC(=O)O)C(=O)O)C(=O)O)NC(=O)[C@H](Cc1c[nH]c2ccccc12)NC(=O)[C@H](CCC(=O)O)NC(=O)[C@H](CCC(=O)O)NC(=O)[C@@H]1CCCN1C(=O)[C@H](CO)NC(=O)[C@H](C)NC(=O)[C@H](CC(=O)O)NC(=O)[C@H](CCCCN)NC(=O)CNC(=O)[C@@H]1CCCN1C(=O)[C@H](C)NC(=O)[C@H](CCC(=O)O)NC(=O)[C@@H]1CCCN1C(=O)[C@H](CCCCN)NC(=O)[C@@H]1CCCN1)C(=O)N[C@@H](CCCNC(=N)N)C(=O)N[C@@H](Cc1c[nH]cn1)C(=O)N[C@@H](Cc1ccc(O)cc1)C(=O)N[C@@H](CC(C)C)C(=O)N[C@@H](CC(N)=O)C(=O)N[C@@H](Cc1c[nH]c2ccccc12)C(=O)N[C@@H](CC(C)C)C(=O)N[C@H](C(=O)N[C@@H](CCCNC(=N)N)C(=O)N[C@@H](CCC(N)=O)C(=O)N[C@@H](CCCNC(=N)N)C(=O)N[C@@H](Cc1ccccc1)C(N)=O)[C@@H](C)O
B5: Compound A63 (peptide)
peptide: PKPEAPK([γGlu-γGlu-C20 diacid])KDASPEELNRYYADARHYLNWLTRQR[NMeY]-NH2
modifications: N-terminus assumed
SMILES: CC(C)C[C@H](NC(=O)[C@H](Cc1ccc(O)cc1)NC(=O)[C@H](Cc1c[nH]cn1)NC(=O)[C@H](CCCNC(=N)N)NC(=O)[C@H](C)NC(=O)[C@H](CC(=O)O)NC(=O)[C@H](C)NC(=O)[C@H](Cc1ccc(O)cc1)NC(=O)[C@H](Cc1ccc(O)cc1)NC(=O)[C@H](CCCNC(=N)N)NC(=O)[C@H](CC(N)=O)NC(=O)[C@H](CC(C)C)NC(=O)[C@H](CCC(=O)O)NC(=O)[C@H](CCC(=O)O)NC(=O)[C@@H]1CCCN1C(=O)[C@H](CO)NC(=O)[C@H](C)NC(=O)[C@H](CC(=O)O)NC(=O)[C@H](CCCCN)NC(=O)[C@H](CCCCNC(=O)CC[C@H](NC(=O)CC[C@H](NC(=O)CCCCCCCCCCCCCCCCCCC(=O)O)C(=O)O)C(=O)O)NC(=O)[C@@H]1CCCN1C(=O)[C@H](C)NC(=O)[C@H](CCC(=O)O)NC(=O)[C@@H]1CCCN1C(=O)[C@H](CCCCN)NC(=O)[C@@H]1CCCN1)C(=O)N[C@@H](CC(N)=O)C(=O)N[C@@H](Cc1c[nH]c2ccccc12)C(=O)N[C@@H](CC(C)C)C(=O)N[C@H](C(=O)N[C@@H](CCCNC(=N)N)C(=O)N[C@@H](CCC(N)=O)C(=O)N[C@@H](CCCNC(=N)N)C(=O)N(C)[C@@H](Cc1ccc(O)cc1)C(N)=O)[C@@H](C)O
B6: Compound A61 (peptide)
peptide: PKPEAPGK([γGlu-γGlu-C20 diacid])DASPEEWNRYYADLRHYLNWLTRQR[hPhe]-NH2
B7: Compound A58 (peptide)
peptide: PKPEAPGK([γGlu-γGlu-C20 diacid])DASPEEWNRYYADLRHYLNWLTRQR[Phe(4-Me)]-NH2

Molecular target: T1, NPY5R
Experiment: cell-based or functional assay

Compared with B1, B2 is lower in “NPY5R pEC50” value: 8.6 -Log(EC50, M) for the first, 7.3 -Log(EC50, M) for the second.

Compared with B3, B4 is lower in “NPY5R pEC50” value: 8 -Log(EC50, M) for the first, 7.7 -Log(EC50, M) for the second.

Compared with B5, B6 is higher in “NPY5R pEC50” value: 6 -Log(EC50, M) for the first, 8.3 -Log(EC50, M) for the second.

For B7, the “NPY5R pEC50” value was 8.8 -Log(EC50, M).

Molecular target: T2, NPY2R
Experiment: cell-based or functional assay

Compared with B1, B2 is lower in “NPY2R pEC50” value: 10.3 -Log(EC50, M) for the first, 8.7 -Log(EC50, M) for the second.

Going from B3 to B4, the “NPY2R pEC50” value rises from 7.7 -Log(EC50, M) to 8.9 -Log(EC50, M).

Going from B5 to B6, the “NPY2R pEC50” value rises from 7.5 -Log(EC50, M) to 10 -Log(EC50, M).

With B7 the “NPY2R pEC50” value was 10.3 -Log(EC50, M).
